# Test results taken from patent US20260008815A1, “CYCLIC PEPTIDE OR SALT THEREOF, AND USES THEREOF” (FUJIFILM Corporation, priority 2023, published 2026).
# Bridge positions count the residues as written; N and C are the ends. Ends that are not written are not given here. COCH2 = acetyl group that carries the bridge
# B1: cyclic peptide SEQ ID NO: 49 (peptide)
# peptide: SCQGNWISNTQFRYFIAYK(COCH2)T
# modifications: thioether 2-19 (inferred); not fully specified (residue 1); printed as s-(C)-QGNWISNTQFRYFIAY-(K(acetyl))-T
# Molecular target: T1, Recombinant Human FGFR2 alpha (IIIc) Fc Chimera Protein, CF (R&D systems, 712-FR-050) (human, UniProt P21802 22-377)
# T1 construct: bought; not shown: Fc part of the chimera
# T1 sequence (P21802 22-377, change not shown): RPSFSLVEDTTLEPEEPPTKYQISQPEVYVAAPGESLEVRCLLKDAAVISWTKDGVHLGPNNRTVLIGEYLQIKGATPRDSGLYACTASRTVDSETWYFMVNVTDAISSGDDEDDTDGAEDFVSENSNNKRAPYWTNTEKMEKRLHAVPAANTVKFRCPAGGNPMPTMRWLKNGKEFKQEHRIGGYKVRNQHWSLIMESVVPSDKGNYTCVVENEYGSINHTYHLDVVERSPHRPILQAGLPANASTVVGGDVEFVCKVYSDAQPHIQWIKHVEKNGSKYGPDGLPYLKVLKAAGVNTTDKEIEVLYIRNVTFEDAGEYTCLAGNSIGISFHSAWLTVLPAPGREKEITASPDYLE
# Assay: ELISA on plate-bound FGFR2-Fc
# How it was run: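 Peptide binding scored by category from dose-response of background-corrected luminescence (FGFR-coated minus uncoated wells). Detection via anti-Myc antibody (2 h, room temperature) after 3 h peptide incubation on wells coated with 5 ng FGFR2 alpha (IIIc)-Fc.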
row,"ELISA luminescence signal at 10 nmol/L peptide, relative to SEQ ID NO: 47 (=1)",Binder
1,≥ 0.7 ratio,GCYWNEVQYYYLQQYK(COCH2)Q (thioether 2-16 (inferred)) [cyclic peptide SEQ ID NO: 48]
2,0.1 to 0.5 ratio,LCYLYQYLYQAK(COCH2)F (thioether 2-12) [cyclic peptide SEQ ID NO: 365]
3,0.1 to 0.5 ratio,QCEQLKYLYQYVLKL (not fully specified; thioether ring (C)-(K(acetyl))) [cyclic peptide SEQ ID NO: 372]
4,0.1 to 0.5 ratio,QCLQYLYQYLFK(COCH2)I (thioether 2-12) [cyclic peptide SEQ ID NO: 364]
5,0.1 to 0.5 ratio,LCYLYQYLYTTK(COCH2)Y (thioether 2-12) [cyclic peptide SEQ ID NO: 362]
6,0.1 to 0.5 ratio,QCYYLYWYLYK(COCH2)I (thioether 2-11) [cyclic peptide SEQ ID NO: 361]
7,0.1 to 0.5 ratio,DCQLWYLYQYLIVK(COCH2)A (thioether 2-14) [cyclic peptide SEQ ID NO: 371]
8,≥ 0.7 ratio,YCPQNFINPVQWRYFQHYK(COCH2)N (thioether 2-19 (inferred)) [cyclic peptide SEQ ID NO: 77]
9,0.1 to 0.5 ratio,QCPQHFINPVQWRYFQHYK(COCH2)N (thioether 2-19) [cyclic peptide SEQ ID NO: 100]
10,≥ 0.7 ratio,TCPQNFINPVQWRYFQHYK(COCH2)N (thioether 2-19 (inferred)) [cyclic peptide SEQ ID NO: 82]
11,0.1 to 0.5 ratio,QCPQEFINPVQWRYFQHYK(COCH2)N (thioether 2-19) [cyclic peptide SEQ ID NO: 99]
12,≥ 0.7 ratio,QCPQNFINPVHWRYFQHYK(COCH2)N (thioether 2-19 (inferred)) [cyclic peptide SEQ ID NO: 87]
13,≥ 0.7 ratio,QCPQNFINPVQWRYLQHYK(COCH2)N (thioether 2-19 (inferred)) [cyclic peptide SEQ ID NO: 88]
14,≥ 0.7 ratio,QCPQNFINPVQWRYFQHWK(COCH2)N (thioether 2-19) [cyclic peptide SEQ ID NO: 93]
15,0.1 to 0.5 ratio,QCPQTFINPVQWRYFQHYK(COCH2)N (thioether 2-19) [cyclic peptide SEQ ID NO: 98]
16,0.1 to 0.5 ratio,QCPQNFINPVQVRYFQHYK(COCH2)N (thioether 2-19) [cyclic peptide SEQ ID NO: 102]
17,0.1 to 0.5 ratio,QCPQYFINPVQWRYFQHYK(COCH2)N (thioether 2-19) [cyclic peptide SEQ ID NO: 96]
18,0.5 to 0.7 ratio,QCPQNFINPVQYRYFQHYK(COCH2)N (thioether 2-19) [cyclic peptide SEQ ID NO: 104]
19,0.1 to 0.5 ratio,QCPQNFINPVQWRYRQHYK(COCH2)N (thioether 2-19 (inferred)) [cyclic peptide SEQ ID NO: 90]
20,0.1 to 0.5 ratio,QK(COCH2)PQNFINPVQWRYFQHYCN (thioether 2-19) [cyclic peptide SEQ ID NO: 399]
21,≥ 0.7 ratio,QCPQNFINPVQWRYFQHFK(COCH2)N (thioether 2-19) [cyclic peptide SEQ ID NO: 92]
22,0.1 to 0.5 ratio,QCPQNFINPVQWRYFQHSK(COCH2)N (thioether 2-19) [cyclic peptide SEQ ID NO: 94]
23,0.5 to 0.7 ratio,QCPQNFINPVQFRYFQHYK(COCH2)N (thioether 2-19) [cyclic peptide SEQ ID NO: 103]
24,≥ 0.7 ratio,SCPQNFINPVQWRYFQHYK(COCH2)N (thioether 2-19 (inferred)) [cyclic peptide SEQ ID NO: 81]

row,"ELISA luminescence signal at 10 nmol/L peptide, relative to SEQ ID NO: 47 (=1)",Binder
1,0.1 to 0.5 ratio,QCPQNFINPVQWRYFQHVK(COCH2)N (thioether 2-19) [cyclic peptide SEQ ID NO: 91]
2,≥ 0.7 ratio,QCPQNFINPVQHRYFQHYK(COCH2)N (thioether 2-19) [cyclic peptide SEQ ID NO: 106]
3,≥ 0.7 ratio,WCPQNFINPVQWRYFQHYK(COCH2)N (thioether 2-19 (inferred)) [cyclic peptide SEQ ID NO: 78]
4,≥ 0.7 ratio,DCPQNFINPVQWRYFQHYK(COCH2)N (thioether 2-19 (inferred)) [cyclic peptide SEQ ID NO: 83]
5,0.5 to 0.7 ratio,QCPQNFINPVQWRYYQHYK(COCH2)N (thioether 2-19 (inferred)) [cyclic peptide SEQ ID NO: 89]
6,≥ 0.7 ratio,NCPQNFINPVQWRYFQHYK(COCH2)N (thioether 2-19 (inferred)) [cyclic peptide SEQ ID NO: 79]
7,0.1 to 0.5 ratio,QCPQSFINPVQWRYFQHYK(COCH2)N (thioether 2-19) [cyclic peptide SEQ ID NO: 97]
8,≥ 0.7 ratio,RCPQNFINPVQWRYFQHYK(COCH2)N (thioether 2-19 (inferred)) [cyclic peptide SEQ ID NO: 85]
9,≥ 0.7 ratio,ECPQNFINPVQWRYFQHYK(COCH2)N (thioether 2-19 (inferred)) [cyclic peptide SEQ ID NO: 84]
10,0.1 to 0.5 ratio,QCPQGFINPVQWRYFQHYK(COCH2)N (thioether 2-19) [cyclic peptide SEQ ID NO: 95]
11,0.1 to 0.5 ratio,QCPQNFINPVQIRYFQHYK(COCH2)N (thioether 2-19) [cyclic peptide SEQ ID NO: 101]
12,0.1 to 0.5 ratio,QCPQNFINPVQSRYFQHYK(COCH2)N (thioether 2-19) [cyclic peptide SEQ ID NO: 105]
13,≥ 0.7 ratio,HCPQNFINPVQWRYFQHYK(COCH2)N (thioether 2-19 (inferred)) [cyclic peptide SEQ ID NO: 86]
14,0.1 to 0.5 ratio,DCLQFLYLYLYQK(COCH2)T (thioether 2-13) [cyclic peptide SEQ ID NO: 369]
15,0.1 to 0.5 ratio,DCQQYYLYLYLWK(COCH2)I (thioether 2-13) [cyclic peptide SEQ ID NO: 366]
16,0.1 to 0.5 ratio,HCQLEYLYTYVLK(COCH2)I (thioether 2-13) [cyclic peptide SEQ ID NO: 367]
17,≥ 0.7 ratio,VCHSNFLSAVQYAYFYQYK(COCH2)H (thioether 2-19 (inferred)) [cyclic peptide SEQ ID NO: 51]
18,0.1 to 0.5 ratio,QCLIQDLYAYIFK(COCH2)L (thioether 2-13) [cyclic peptide SEQ ID NO: 368]
19,0.1 to 0.5 ratio,LCYLYQYIYTAK(COCH2)F (thioether 2-12) [cyclic peptide SEQ ID NO: 363]
20,0.1 to 0.5 ratio,VCNENNWSRSQYHFFLQYK(COCH2)Y (thioether 2-19 (inferred)) [cyclic peptide SEQ ID NO: 52]
21,≥ 0.7 ratio,ACGQNFYHPVQFHYFIAYK(COCH2)Q (thioether 2-19 (inferred)) [cyclic peptide SEQ ID NO: 50]
22,0.1 to 0.5 ratio,DCQLYYLYQYVLTK(COCH2)V (thioether 2-14) [cyclic peptide SEQ ID NO: 370]
23,≥ 0.7 ratio,B1
